Our source for the Kd values is paper PMC5961234.

The data set has as its target human alpha-thrombin (Homo sapiens, UniProt P00734;P00734 328-363;364-622). In words: BLI.

B1: T7W (structured_DNA)
DNA: GGTTGGTGTGGTTGG
modifications: T7 = W, 5-(indolyl-3-acetyl-3-amino-1-propenyl)-2'-deoxyuridine (written T)
For orientation: Kd means the constant that tells how readily two partners part at equilibrium. Low values mean tighter binding, high ones weaker binding. In the case of B1, the Kd is 1.7 nM.

B2: T4WT12W (structured_DNA)
DNA: GGTTGGTGTGGTTGG
modifications: T4 and T12 = W, 5-(indolyl-3-acetyl-3-amino-1-propenyl)-2'-deoxyuridine (written T)
On to B2, for which binding was characterised by a dissociation constant (Kd) of 0.31 nM.

B3: T4K (structured_DNA)
DNA: GGTTGGTGTGGTTGG
modifications: T4 = K, 5-(methyl-3-acetyl-3-amino-1-propenyl)-2'-deoxyuridine (written T)
B3: the Kd came to 0.39 nM.

B4: T12W (structured_DNA)
DNA: GGTTGGTGTGGTTGG
modifications: T12 = W, 5-(indolyl-3-acetyl-3-amino-1-propenyl)-2'-deoxyuridine (written T)
B4 had a Kd of 1.3 nM.

B5: T3W (structured_DNA)
DNA: GGTTGGTGTGGTTGG
modifications: T3 = W, 5-(indolyl-3-acetyl-3-amino-1-propenyl)-2'-deoxyuridine (written T)
B5 displayed a Kd of 3.9 nM.

B6: TBA (structured_DNA)
DNA: GGTTGGTGTGGTTGG
modifications: none
B6 gave a Kd of 2.8 nM.

B7: T4W (structured_DNA)
DNA: GGTTGGTGTGGTTGG
modifications: T4 = W, 5-(indolyl-3-acetyl-3-amino-1-propenyl)-2'-deoxyuridine (written T)
B7 gave a Kd of 1 nM.
